# Reference: the supplement of paper PMC10065799, “High-throughput profiling of sequence recognition by tyrosine kinases and SH2 domains using bacterial peptide display” (eLife, 2023)
# Columns and labels:
# MERTK = MERTK (UniProt Q12866); assay: phosphorylation enrichment, bacterial display (enrichment ratio); higher = better substrate or ligand; peptides without Tyr show the background
# Fer (mouse) = assay: as above
# AncSZ = assay: as above
# FGFR1 = FGFR1 (UniProt P11362); assay: as above
# FGFR3 = FGFR3 (UniProt P22607); assay: as above
# EPHB1 = EPHB1 (UniProt P54762); assay: as above
# c-Src = assay: as above
# Fes = Fes (UniProt P07332); assay: as above
# Fyn = Fyn (UniProt P06241); assay: as above
# Hck = Hck (UniProt P08631); assay: as above
# c-Abl (mouse) = assay: as above
# EPHB2 = EPHB2 (UniProt P29323); assay: as above
# Jak2 = Jak2 (UniProt O60674); assay: as above
# SHP2-C SH2 = assay: SH2 binding enrichment of the phosphorylated peptide, bacterial display (enrichment ratio); higher = better substrate or ligand; peptides without Tyr show the background
# Grb2 SH2 = Grb2 SH2 (UniProt P62993); assay: as above
# c-Src SH2 = assay: as above
# 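For SH2 binding enrichment of the phosphorylated peptide, bacterial display in this document: peptide library displayed on the E. coli surface as eCPX fusions, selected cells deep-sequenced, score is each peptide's frequency after selection divided by its frequency in the input.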
# 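For phosphorylation enrichment, bacterial display in this document: 11-residue human phosphosite peptides and single-mutation variants displayed on the E. coli surface, counted by deep sequencing, each peptide's frequency after selection divided by its frequency in the unselected input library; frequency after pTyr selection over input frequency; kinase dosed for 20-30% of maximal phosphorylation in three min.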
# Sequence of MERTK (Q12866 whole entry, looked up): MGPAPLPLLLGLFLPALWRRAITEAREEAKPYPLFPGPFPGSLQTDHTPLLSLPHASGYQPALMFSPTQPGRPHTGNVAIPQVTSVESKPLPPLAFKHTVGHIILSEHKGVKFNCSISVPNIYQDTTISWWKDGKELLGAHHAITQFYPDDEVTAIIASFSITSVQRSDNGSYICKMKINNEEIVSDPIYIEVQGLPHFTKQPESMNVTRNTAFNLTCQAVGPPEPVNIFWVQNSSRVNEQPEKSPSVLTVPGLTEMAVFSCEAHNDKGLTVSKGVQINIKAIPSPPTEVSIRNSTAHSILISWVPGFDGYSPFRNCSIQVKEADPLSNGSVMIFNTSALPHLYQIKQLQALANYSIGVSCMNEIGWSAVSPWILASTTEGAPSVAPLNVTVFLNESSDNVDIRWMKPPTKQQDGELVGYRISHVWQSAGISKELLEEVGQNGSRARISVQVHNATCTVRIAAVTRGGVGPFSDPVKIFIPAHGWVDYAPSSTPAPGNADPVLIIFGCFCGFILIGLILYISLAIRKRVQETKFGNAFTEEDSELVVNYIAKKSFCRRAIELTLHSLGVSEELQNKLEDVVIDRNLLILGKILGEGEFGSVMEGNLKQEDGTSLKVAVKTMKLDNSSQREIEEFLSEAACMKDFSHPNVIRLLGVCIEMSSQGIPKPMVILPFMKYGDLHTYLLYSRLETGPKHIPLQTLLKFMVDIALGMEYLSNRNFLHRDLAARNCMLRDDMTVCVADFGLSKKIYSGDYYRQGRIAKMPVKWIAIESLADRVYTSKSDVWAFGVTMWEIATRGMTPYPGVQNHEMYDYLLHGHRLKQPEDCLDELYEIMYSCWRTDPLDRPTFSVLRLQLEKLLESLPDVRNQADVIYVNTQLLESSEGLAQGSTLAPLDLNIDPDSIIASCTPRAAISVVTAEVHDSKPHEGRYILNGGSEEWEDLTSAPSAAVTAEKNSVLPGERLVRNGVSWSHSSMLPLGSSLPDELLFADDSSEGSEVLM
# Sequence of Jak2 (O60674 whole entry, looked up): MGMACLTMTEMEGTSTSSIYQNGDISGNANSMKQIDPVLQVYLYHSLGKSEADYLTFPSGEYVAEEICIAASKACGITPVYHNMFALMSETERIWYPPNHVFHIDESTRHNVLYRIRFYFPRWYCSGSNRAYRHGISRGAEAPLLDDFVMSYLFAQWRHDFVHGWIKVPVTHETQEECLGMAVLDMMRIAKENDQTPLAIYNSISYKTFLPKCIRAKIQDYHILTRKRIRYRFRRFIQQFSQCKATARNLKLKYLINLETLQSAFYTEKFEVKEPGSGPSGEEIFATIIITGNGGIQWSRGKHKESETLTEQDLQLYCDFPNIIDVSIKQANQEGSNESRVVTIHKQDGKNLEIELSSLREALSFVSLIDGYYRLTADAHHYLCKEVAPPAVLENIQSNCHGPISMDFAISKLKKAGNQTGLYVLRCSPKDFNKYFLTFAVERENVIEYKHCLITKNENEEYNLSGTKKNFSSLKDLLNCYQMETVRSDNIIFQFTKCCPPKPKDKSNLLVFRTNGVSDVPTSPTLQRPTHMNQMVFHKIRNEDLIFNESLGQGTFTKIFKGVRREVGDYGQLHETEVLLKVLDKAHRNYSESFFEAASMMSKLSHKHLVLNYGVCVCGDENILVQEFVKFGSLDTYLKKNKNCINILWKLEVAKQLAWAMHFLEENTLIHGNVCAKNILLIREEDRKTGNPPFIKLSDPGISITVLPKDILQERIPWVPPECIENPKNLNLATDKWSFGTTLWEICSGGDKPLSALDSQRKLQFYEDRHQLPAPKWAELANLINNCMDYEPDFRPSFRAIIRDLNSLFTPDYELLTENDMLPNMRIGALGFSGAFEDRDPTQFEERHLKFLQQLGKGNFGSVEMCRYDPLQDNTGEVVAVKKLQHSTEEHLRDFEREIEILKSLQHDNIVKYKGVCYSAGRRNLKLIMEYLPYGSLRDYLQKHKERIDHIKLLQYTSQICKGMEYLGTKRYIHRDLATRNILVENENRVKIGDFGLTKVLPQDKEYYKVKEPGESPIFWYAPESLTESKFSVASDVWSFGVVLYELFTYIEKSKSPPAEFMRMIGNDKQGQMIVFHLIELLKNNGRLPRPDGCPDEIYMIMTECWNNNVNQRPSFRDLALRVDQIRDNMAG
# Sequence of EPHB2 (P29323 whole entry, looked up): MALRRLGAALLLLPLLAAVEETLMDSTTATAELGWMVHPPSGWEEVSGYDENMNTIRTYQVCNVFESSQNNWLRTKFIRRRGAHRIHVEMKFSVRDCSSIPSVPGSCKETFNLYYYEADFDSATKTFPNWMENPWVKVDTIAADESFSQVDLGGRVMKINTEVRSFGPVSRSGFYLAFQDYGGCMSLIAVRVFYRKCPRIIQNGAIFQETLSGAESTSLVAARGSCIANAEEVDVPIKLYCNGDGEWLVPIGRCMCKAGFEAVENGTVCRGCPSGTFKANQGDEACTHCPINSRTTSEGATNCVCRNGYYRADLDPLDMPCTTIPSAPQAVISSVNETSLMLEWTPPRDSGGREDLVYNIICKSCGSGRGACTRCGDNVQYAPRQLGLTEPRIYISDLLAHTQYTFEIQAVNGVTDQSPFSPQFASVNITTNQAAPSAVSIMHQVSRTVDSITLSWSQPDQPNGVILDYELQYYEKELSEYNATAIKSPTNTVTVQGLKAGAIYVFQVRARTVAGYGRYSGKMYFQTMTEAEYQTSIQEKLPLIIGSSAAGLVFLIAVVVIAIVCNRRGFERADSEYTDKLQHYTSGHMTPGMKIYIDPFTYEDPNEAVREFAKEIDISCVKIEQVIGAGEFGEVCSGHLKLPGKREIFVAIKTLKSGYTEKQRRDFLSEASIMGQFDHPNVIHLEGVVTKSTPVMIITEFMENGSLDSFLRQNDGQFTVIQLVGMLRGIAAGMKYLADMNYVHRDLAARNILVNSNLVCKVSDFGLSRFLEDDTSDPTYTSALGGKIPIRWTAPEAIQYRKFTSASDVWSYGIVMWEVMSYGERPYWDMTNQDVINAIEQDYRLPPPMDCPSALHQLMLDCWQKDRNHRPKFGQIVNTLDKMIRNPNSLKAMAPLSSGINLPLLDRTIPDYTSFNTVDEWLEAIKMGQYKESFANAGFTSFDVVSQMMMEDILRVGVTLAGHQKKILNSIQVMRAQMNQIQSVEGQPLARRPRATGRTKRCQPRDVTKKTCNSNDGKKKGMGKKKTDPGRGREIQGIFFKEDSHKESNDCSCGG
# Sequence of Fyn (P06241 whole entry, looked up): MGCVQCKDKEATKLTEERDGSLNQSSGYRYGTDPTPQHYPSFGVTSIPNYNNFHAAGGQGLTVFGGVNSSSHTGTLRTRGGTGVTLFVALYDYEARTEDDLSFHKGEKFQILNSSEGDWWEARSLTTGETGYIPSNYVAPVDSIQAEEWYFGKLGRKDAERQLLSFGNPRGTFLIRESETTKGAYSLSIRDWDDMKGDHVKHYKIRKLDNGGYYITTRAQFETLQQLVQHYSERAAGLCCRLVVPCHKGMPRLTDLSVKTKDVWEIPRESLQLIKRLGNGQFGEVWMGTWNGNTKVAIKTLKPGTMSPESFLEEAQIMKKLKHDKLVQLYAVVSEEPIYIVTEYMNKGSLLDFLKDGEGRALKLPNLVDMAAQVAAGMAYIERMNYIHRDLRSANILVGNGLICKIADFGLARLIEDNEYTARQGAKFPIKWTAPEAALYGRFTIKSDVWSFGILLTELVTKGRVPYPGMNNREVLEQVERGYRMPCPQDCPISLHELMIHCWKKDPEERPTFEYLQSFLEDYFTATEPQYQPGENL
# Sequence of FGFR3 (P22607 whole entry, looked up): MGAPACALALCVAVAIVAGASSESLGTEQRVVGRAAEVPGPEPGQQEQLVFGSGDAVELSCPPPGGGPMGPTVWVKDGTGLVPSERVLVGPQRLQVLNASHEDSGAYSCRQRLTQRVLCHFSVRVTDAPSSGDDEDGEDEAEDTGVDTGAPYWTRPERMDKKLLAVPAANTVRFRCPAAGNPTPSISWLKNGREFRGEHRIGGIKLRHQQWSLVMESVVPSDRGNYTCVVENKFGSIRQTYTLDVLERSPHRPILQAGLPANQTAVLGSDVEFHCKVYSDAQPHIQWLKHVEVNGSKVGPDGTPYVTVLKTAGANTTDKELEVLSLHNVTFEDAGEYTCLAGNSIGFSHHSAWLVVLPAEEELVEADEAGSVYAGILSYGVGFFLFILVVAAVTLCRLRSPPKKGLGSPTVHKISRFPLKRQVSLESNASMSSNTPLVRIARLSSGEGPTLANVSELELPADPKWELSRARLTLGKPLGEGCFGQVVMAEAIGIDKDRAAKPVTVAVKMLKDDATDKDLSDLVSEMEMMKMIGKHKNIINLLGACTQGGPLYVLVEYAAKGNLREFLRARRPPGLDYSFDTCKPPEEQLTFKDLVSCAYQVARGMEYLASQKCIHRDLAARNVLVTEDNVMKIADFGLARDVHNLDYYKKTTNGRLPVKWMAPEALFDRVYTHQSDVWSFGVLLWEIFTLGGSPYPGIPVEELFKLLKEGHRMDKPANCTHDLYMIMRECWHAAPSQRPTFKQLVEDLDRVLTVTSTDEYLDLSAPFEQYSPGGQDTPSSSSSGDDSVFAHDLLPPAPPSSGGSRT
# Sequence of Hck (P08631 whole entry, looked up): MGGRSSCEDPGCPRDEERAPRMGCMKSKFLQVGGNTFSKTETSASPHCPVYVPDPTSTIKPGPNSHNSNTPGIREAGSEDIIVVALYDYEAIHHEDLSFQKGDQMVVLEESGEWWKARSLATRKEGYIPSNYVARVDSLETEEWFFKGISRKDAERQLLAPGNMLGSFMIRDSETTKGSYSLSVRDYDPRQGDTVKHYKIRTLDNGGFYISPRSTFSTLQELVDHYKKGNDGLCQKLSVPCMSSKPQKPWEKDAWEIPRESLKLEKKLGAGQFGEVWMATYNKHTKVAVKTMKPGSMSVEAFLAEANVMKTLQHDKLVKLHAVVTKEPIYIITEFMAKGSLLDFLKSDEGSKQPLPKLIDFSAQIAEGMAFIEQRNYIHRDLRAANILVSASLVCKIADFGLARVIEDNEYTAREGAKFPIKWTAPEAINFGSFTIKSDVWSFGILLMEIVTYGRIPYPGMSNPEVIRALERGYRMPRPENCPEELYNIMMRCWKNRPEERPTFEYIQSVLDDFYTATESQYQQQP
SH2 binding enrichment (SHP2-C SH2),SH2 binding enrichment (Grb2 SH2),SH2 binding enrichment (c-Src SH2),Sequence,phosphorylation enrichment (MERTK),phosphorylation enrichment (Fer (mouse)),phosphorylation enrichment (AncSZ),phosphorylation enrichment (FGFR1),phosphorylation enrichment (FGFR3),phosphorylation enrichment (EPHB1),phosphorylation enrichment (c-Src),phosphorylation enrichment (Fes),phosphorylation enrichment (Fyn),phosphorylation enrichment (Hck),phosphorylation enrichment (c-Abl (mouse)),phosphorylation enrichment (EPHB2),phosphorylation enrichment (Jak2)
0.429,0.82,0.412,EGTATYAAAIL [JUP_Y644_V648I],0.534,1.57,0.857,0.476,0.586,0.884,1.25,0.872,1.25,1.21,0.976,1.76,0.795
0.656,0.78,0.409,ISIFYYAKGQP [MPZ_Y82_H81Y],0.504,0.496,1.38,0.563,0.674,0.532,0.649,1.72,0.52,0.429,1.19,0.61,1.36
0.848,1.1,0.656,VSTKVYKRFPS [BEST1_Y148_A146K],0.365,0.422,0.445,0.384,0.305,0.344,0.425,0.605,0.366,0.352,0.505,0.348,0.47
0.622,0.675,0.321,QIGRKYKKVRF [F8_Y442_R437Q],0.923,0.836,0.84,0.807,1.11,0.902,1.03,1.04,0.795,1.19,0.502,0.44,1.62
0.547,0.576,0.447,GANFEYIIAEK [ECHS1_Y35],0.513,0.406,0.911,0.523,0.594,0.501,0.48,0.862,0.479,0.553,0.544,0.455,0.883
0.783,0.927,0.623,EREYKYGAHNY [OAT_Y50],0.397,0.35,0.516,0.348,0.43,0.354,0.394,0.558,0.445,0.333,0.506,0.376,0.5
0.781,1.08,0.603,EDAHHYLCKEV [JAK2_Y382_A377E],0.411,0.441,0.799,0.588,0.778,0.656,0.366,0.857,0.542,0.439,0.657,0.493,0.632
0.589,0.837,0.625,ERRLIYASDPK [VPS13D_Y864_T865A],0.45,0.395,0.634,0.46,0.479,0.443,0.475,0.678,0.418,0.473,0.545,0.391,0.506
0.698,1.01,0.644,TEDAEYDVQSK [PTCHD3_Y335_P333A],0.492,0.606,1.38,0.515,0.689,0.611,0.535,1.14,0.539,0.591,0.848,0.609,1.07
